Data: US20260008817A1, “CYCLIC PEPTIDE OR SALT THEREOF, AND USES THEREOF” (FUJIFILM Corporation, priority 2023, published 2026)

Tests used:
[1] = biological target: T1, FGFR3 Protein, Human, Recombinant (ECD, His Tag) (Homo sapiens, UniProt P22607); test: SPR FGFR versatility, FGFR3 on immobilized cyclic peptide; type: binding; settings: 1 μmol/L FGFR, 25° C.
T1 construct: FGFR3 Protein, Human, Recombinant (ECD, His Tag); His tag; purchased Sino Biological 16044-H08H
T1 sequence (P22607 23-375 limits assumed): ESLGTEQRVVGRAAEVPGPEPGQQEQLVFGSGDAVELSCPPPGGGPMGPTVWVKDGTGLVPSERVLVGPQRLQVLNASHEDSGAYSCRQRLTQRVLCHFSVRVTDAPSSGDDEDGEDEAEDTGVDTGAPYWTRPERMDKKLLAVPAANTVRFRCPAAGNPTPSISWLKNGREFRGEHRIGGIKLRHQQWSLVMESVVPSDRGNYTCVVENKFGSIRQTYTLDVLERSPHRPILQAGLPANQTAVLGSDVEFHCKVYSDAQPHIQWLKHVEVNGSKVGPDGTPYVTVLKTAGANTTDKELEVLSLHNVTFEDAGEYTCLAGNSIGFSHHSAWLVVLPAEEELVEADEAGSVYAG
Procedure: (§1) The binding of the cyclic peptide to various types of FGFRs was evaluated using a surface plasmon resonance (SPR) method.
(§2) The binding affinity of the chemically synthesized cyclic peptide to FGFR was evaluated by the following procedure.
(§3) A CM5 sensor chip (Cytiva, 29149603) was set in Biacore-T200 (manufactured by Cytiva) which is a surface plasmon resonance device, and an HBS-EP buffer (Cytiva, BR100826) was added as a running buffer at a flow rate of 10 μL/min to equilibrate the flow channel. Next, 70 μL of a mixed aqueous solution of 0.2 mol/L 1-(3-dimethylaminopropyl)-3-ethylcarbodiimide (EDC) and 0.05 mol/L N-hydroxysuccinimide (NHS) was added to activate the sensor chip. Then, a cyclic peptide prepared to 2 mg/mL in HBS-EP buffer was added thereto to perform immobilization at about 200 RU. […]
(§4) After various FGFRs (FGFR1 Protein, Human, Recombinant (His Tag) (Sino Biological, 10616-H08H), FGFR3 Protein, Human, Recombinant (ECD, His Tag) (Sino Biological, 16044-H08H), FGFR4 Protein, Human, Recombinant (His Tag) (Sino Biological, 10538-H08H)) diluted with HBS-EP to 1 μmol/L at 25° C. was added to each flow channel of the cyclic peptide-immobilized sensor chip prepared above, for 10 minutes, HBS-EP was allowed to flow as a running buffer for 30 minutes, and the binding of various FGFRs to the cyclic peptide was measured. […]

[2] = biological target: T2, FGFR4 Protein, Human, Recombinant (His Tag) (Homo sapiens, UniProt P22455); test: SPR FGFR versatility, FGFR4 on immobilized cyclic peptide; type: binding; settings: 1 μmol/L FGFR, 25° C.
T2 construct: His tag; purchased Sino Biological 10538-H08H
T2 sequence (P22455 22-369 limits assumed): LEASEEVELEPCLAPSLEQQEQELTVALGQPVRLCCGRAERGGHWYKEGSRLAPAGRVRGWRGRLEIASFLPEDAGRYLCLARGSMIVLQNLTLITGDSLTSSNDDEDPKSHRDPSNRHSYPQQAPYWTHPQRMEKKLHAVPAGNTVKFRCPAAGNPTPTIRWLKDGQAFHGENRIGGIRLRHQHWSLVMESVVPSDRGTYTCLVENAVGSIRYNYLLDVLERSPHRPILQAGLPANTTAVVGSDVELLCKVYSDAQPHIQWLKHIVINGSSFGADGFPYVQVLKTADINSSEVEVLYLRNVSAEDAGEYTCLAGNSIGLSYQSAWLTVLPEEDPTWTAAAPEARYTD
Procedure: as §1, §2, §3, §4

Substance: 335 (ACVWTFDRHAQEISQALHKVKKK; not fully specified; Description of Artificial Sequence: Cyclic peptide) [compound 335]
- Evaluation result of binding affinity to FGFR3 [1]: B (The binding amount is 0.01 molecules of FGFR/one molecule of the cyclic peptide or more and less than 0.05 molecules of FGFR/one molecule of the cyclic peptide.)
- Evaluation result of binding affinity to FGFR4 [2]: A (The binding amount is 0.05 molecules of FGFR/one molecule of the cyclic peptide or more.)
